Measured values from publication doi:10.1101/2024.02.27.582253, “Identification of an evolutionary conserved binding motif responsible for the recruitment of NMD factors to the UPF1 helicase” (bioRxiv, 2024).

T1: S. cerevisiae Upf1 helicase domain, Upf1-HD-His6 (residues 221-851) (S. cerevisiae, UniProt P30771 221-851)
T1 construct: Upf1 helicase domain, S. cerevisiae, residues 221-851; residues 224-851 seen in the final model; for the crystal it says only that the protein was purified on TALON resin; source: E. coli BL21 (DE3) Gold, purified (TALON, heparin, SEC); not shown: His6, C-terminal, kept
T1 sequence (looked up): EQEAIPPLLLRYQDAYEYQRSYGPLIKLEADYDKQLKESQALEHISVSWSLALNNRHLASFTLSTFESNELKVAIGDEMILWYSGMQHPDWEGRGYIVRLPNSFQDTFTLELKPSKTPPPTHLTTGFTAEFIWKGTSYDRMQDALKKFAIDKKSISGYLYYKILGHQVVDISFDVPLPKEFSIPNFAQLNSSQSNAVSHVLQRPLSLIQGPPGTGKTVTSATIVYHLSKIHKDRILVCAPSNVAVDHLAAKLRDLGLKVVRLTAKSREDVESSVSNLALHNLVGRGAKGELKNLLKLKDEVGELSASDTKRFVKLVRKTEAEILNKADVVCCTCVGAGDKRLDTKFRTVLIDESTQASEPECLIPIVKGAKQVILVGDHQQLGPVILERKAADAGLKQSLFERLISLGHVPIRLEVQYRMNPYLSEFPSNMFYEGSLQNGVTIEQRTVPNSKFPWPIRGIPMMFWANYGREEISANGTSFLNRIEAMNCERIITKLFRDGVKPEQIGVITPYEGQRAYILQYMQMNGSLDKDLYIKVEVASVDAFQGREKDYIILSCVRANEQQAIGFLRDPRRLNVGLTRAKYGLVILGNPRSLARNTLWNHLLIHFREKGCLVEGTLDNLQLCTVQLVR


Target: T1, S. cerevisiae Upf1 helicase domain, …
Experiment: ITC; His6-ZZ-Nmd4 proteins (260 µM full-length and arm, 330 µM PIN) injected into Upf1-HD-His6 (30-35 µM); 20°C; 100 mM Bis-Tris pH 6.5, 200 mM NaCl, 5 mM MgCl2, 5 mM 2-mercaptoethanol; one-binding site model
Settings: both partners purified

Binder	Kd [nM]
His6-ZZ-Nmd4 full-length protein (S. cerevisiae) (natural protein, UniProt Q12129 1-218, looked up, also called full-length Nmd4; His6-ZZ-Nmd4-FL; source: E. coli BL21 (DE3) Gold, purified (Ni-NTA, heparin, SEC; 3C digestion omitted); not shown: His6, N-terminal, kept; ZZ, N-terminal, kept) MTQYNFIIDASAFEKGLGNIKRWCSDCTEAVTLNFYIPTFTLNELDFLQQRRKSFAARESLKFIDRLDDSKFANLKVFIEFPEVLDIILWSDVMEHNDSSGKINIAKLPKRLKNLLKSCIYKCYLEGNEGLHWFLISEDPQIREMAMQCNIPSCSIVDVDSILSKDMNDKSFRESEKFNNMMLKNGTKEESENGREIIRTNFNKTVYASRGTGELWSP	2100
His6-ZZ-Nmd4 « arm » (residues 168-218) (domain or fragment, S. cerevisiae, UniProt Q12129 168-218, looked up, Nmd4 C-terminal arm, S. cerevisiae, residues 168-218; also called « arm » region; source: E. coli BL21 (DE3) Gold, purified; not shown: His6, N-terminal, kept; ZZ, N-terminal, kept) NDKSFRESEKFNNMMLKNGTKEESENGREIIRTNFNKTVYASRGTGELWSP	1960
